Laboratory results from publication PMC9305271.

What was measured:
[1] = target: intermediate horseshoe bat ACE2 (bACE2-Ra), peptidase domain, residues 19-615 (Rhinolophus affinis (intermediate horseshoe bat)); assay: SPR
[2] = target: intermediate horseshoe bat ACE2 (bACE2-Ra), peptide domain, residues 19-615 (Rhinolophus affinis (intermediate horseshoe bat)); assay: SPR
[3] = target: bACE2-Ra-eGFP, full length, on BHK-21 cells (Rhinolophus affinis (intermediate horseshoe bat)); assay: flow cytometry on cells

Row | Substance | Kd [1] [nM] | Kd [2] [nM] | double-positive rate [3] [%]
1 | SARS-CoV-2 receptor-binding domain (prototype), residues 319-541 (from UniProt P0DTC2 319-541) (domain or fragment) | 547 | – | –
2 | SARS-CoV-2 receptor-binding domain (RBD) (from UniProt P0DTC2 319-541) (domain or fragment) | – | 448 | 31.6
